Test [1] has as its target T1, Vaccinia virus B5 antigen, Western Reserve strain VVdd (eGFP) (Vaccinia virus, Western Reserve strain, UniProt Q01227 18-317).
T1 construct: also called B5 on VVdd (eGFP)-infected cells
Kind of test: flow cytometry on VVdd (eGFP)-infected A549 cells.

For test [2], the target named is T2, Vaccinia virus A56 antigen (Wyeth VV sequence) expressed on HEK cells (Vaccinia virus, Wyeth strain, UniProt P20978 17-315).
T2 construct: also called HEK-A56; HEK-A56 (GFP)
T2 chain: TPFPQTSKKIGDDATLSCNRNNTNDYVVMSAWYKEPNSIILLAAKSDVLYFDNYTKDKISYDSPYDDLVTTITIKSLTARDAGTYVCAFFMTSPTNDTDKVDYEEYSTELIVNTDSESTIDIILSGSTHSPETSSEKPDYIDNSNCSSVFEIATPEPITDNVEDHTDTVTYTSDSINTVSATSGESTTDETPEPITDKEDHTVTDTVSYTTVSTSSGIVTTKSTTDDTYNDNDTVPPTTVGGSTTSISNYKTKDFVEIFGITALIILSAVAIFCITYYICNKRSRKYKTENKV
Kind of test: immunohistochemistry (DAB) on histogel sections of HEK-A56 cells.

The target of test [3] is T1, Vaccinia virus B5 antigen, Western …. The test is described as follows: flow cytometry on VVdd (eGFP)-infected A549 cells. The source holds these as a separate data set.
Test [4] concerns the target T3, B5.hFc (Vaccinia virus, Wyeth strain, UniProt O57254 18-279).
T3 construct: also called B5.hFc soluble antigen; B5 human Fc fusion protein
The test is described as follows: SPR Biacore T200, antibody amine-coupled, B5.hFc as analyte, 1:1 Langmuir fit. In general terms: In SPR one partner is held on a chip, and binding of the other changes the refractive index at the surface.

Test [5] concerns the target T3, B5.hFc. Kind of test: SPR Biacore T200, antibody amine-coupled, […].
The target in test [6] is T1, Vaccinia virus B5 antigen, Western …. The test is described as follows: flow cytometry on VVdd (eGFP)-infected HT29 cells.
Test [7] deals with T4, Vaccinia virus A56 antigen, Western Reserve strain VVdd (eGFP) (Vaccinia virus, Western Reserve strain, UniProt Q01218 17-314).
For test [8], the target named is T2, Vaccinia virus A56 antigen (Wyeth VV …). Kind of test: flow cytometry on HEK-A56 (GFP) cells.
Test [9] deals with T5, A56.hFc (Vaccinia virus, Wyeth strain, UniProt P20978 17-279).
T5 construct: also called A56 human Fc fusion protein; A56 protein
T5 chain: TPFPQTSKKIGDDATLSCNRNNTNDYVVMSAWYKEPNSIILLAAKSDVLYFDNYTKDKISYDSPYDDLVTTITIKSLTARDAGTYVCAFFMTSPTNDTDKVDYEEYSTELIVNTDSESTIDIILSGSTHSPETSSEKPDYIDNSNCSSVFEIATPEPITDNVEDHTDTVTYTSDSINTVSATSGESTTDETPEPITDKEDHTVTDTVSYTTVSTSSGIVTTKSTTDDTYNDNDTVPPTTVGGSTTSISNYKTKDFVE
Kind of test: SPR Biacore T200, antibody amine-coupled, A56.hFc as analyte, 1:1 Langmuir fit.

The target in test [10] is T6, Vaccinia virus B5 antigen (Wyeth VV sequence) expressed on HEK cells (Vaccinia virus, Wyeth strain, UniProt O57254 18-317).
T6 construct: also called HEK-B5; HEK-B5 (GFP)
Kind of test: flow cytometry on HEK-B5 (GFP) cells (panel 'HEKB5'). A general note: Flow cytometry measures light scatter and fluorescence of single cells or particles in a stream.

Test [11] deals with T5, A56.hFc. The test is described as follows: SPR Biacore T200, antibody amine-coupled, […].
In test [12] the target is T4, Vaccinia virus A56 antigen, Western …. Kind of test: ELISA on plate-coated VVdd (eGFP) virus particles, HRP anti-hIgG Fc, lower panel. On the technique in general: In an ELISA, binding on a coated surface is turned into a signal by an enzyme label.
For test [13] the target is unchanged. The test is described as follows: flow cytometry on VVdd (eGFP)-infected A549 cells.
For test [14], the target named is T6, Vaccinia virus B5 antigen (Wyeth VV …). Kind of test: immunohistochemistry (DAB) on histogel sections of HEK-B5 cells.
The target is the same in test [15]. The test is described as follows: flow cytometry on HEK-B5 (GFP) cells.
Test [16] concerns the target T1, Vaccinia virus B5 antigen, Western …. Kind of test: ELISA on plate-coated VVdd (eGFP) virus particles, HRP anti-hIgG Fc, upper panel.

B1: A073 (antibody, V domains shown)
VH: QEQLEESGGGLVKPEGSLTLTCTASGFSFSSSYYMCWVRQAPGRGLEWIACIYTSSGSAYYANWAKGRFTISRTSSTTVTLQMTRLTAADTATYFCVRNAVGSSYYLYLWGPGTLVTVSS
VL: QVLTQTPSPVSAAVGGTVTISCQASQSVAGNNYLSWYQQKPGQPPNLLIYSVSTLASGVPSRFKGSGSGTQFTLTISDLECDDAATYYCQGYYNDGIWAFGGGTEVVVK
notes: also called A073 anti-B5, Rb IgG; anti-B5-PE (A073, Rb IgG)
On to B1, for which the 50% effective concentration (EC50) – broadly, the concentration that produces a half-maximal response – in test [1] was found to be 3 nM. Moreover, in [2], the binding result is recorded as “no binding (tested: 10 ug/mL)”.

B2: A058 (antibody, V domains shown)
VH: QEQLEESGGGLVKPEGSLTLTCTASGFSFSSSYYMCWVRQAPGRGLEWIACIYTSSGSAYYANWAKGRFTISRTSSTTVTLQMTRLTAADTATYFCVRNAVGSSYYLYLWGPGTLVTVSS
VL: QVLTQTPSPVSAAVGGTVTISCQASQSVAGNNYLSWYQQKPGQPPNLLIYSVSTLASGVPSRFKGSGSGTQFTLTISDLECDDAATYYCQGYYNDGIWAFGGGTEVVVK
notes: also called A058 anti-B5, Rb/Mu IgG2a; A048/A058/A073
For B2, the midpoint of the response in test [1], the EC50, lay at 3 nM. Besides, in [2], the binding result was “no binding (tested: 10 ug/mL)”.

B3: A048 (antibody, V domains shown)
VH: QEQLEESGGGLVKPEGSLTLTCTASGFSFSSSYYMCWVRQAPGRGLEWIACIYTSSGSAYYANWAKGRFTISRTSSTTVTLQMTRLTAADTATYFCVRNAVGSSYYLYLWGPGTLVTVSS
VL: QVLTQTPSPVSAAVGGTVTISCQASQSVAGNNYLSWYQQKPGQPPNLLIYSVSTLASGVPSRFKGSGSGTQFTLTISDLECDDAATYYCQGYYNDGIWAFGGGTEVVVK
notes: also called anti-B5 A048 hIgG1
As for B3, the figures for the 50% effective concentration (EC50) in test [3], in [1] and in [6] were 6 nM, 9 nM and 1.1 nM, respectively. In addition, in [4], the koff – broadly, the rate constant with which the complex falls apart – amounted to 2.21e-05 s⁻¹. Further, the kon (commonly the rate constant with which the complex forms) in [4] came to 29700 M⁻¹ s⁻¹. For the same molecule, binding in [5] was put at a Kd of 0.745 nM.

B4: A054 (antibody, V domains shown)
VH: QEQVVESGGGLVKPGASLTLTCTASGFTLSSSYWICWVRQAPGKGPEWIACTYNGDGSTHYASWAKGRFTISKSSSTTVTLQMTSLTAADTATYFCARDYTDAFYTYGFNLWGPGTLVTVSS
VL: DIVMTQTPASVSEPVGGTVTIKCQASQSTSSYLAWYQQKPGQPPKLLIYRASSLASGVPSRFKGSGSATEFTLTISDLECADAATYYCQTGFYGSSGHTFGGGTEVVVK
notes: also called A054 (A56); anti-A56 rabbit antibody A054 hIgG1
Consider B4, for which, in [7], the EC50 (read off the curve) (commonly the concentration at which the effect is half-maximal) was around 5 nM. In addition, the binding result in test [8] was “binds”. Also, in test [9], the dissociation rate constant (koff) was 0.0141 s⁻¹ and the kon turned out to be 925000 M⁻¹ s⁻¹. For the same molecule, in test [10], the binding result is listed as “no binding (tested: about 330 nM)”. The equilibrium dissociation constant (Kd) (as a rule, the equilibrium constant for the complex coming apart) in test [11] turned out to be 15.3 nM.

B5: A047 (antibody, V domains shown)
VH: QEQLEESGGDLVKPEGSLTLTCTASGFSFSSSYWICWVRQAPGKGLEWIACIYAGSGGSTYYATWAKGRFTISKTSSTTVTLQMTSLTAADTASYFCVRAYSDRSGGYSFNLWGPGTLVTVSS
VL: QVLTQTASPVSAAVGGTVTINCQASQSVDNNNYLAWYQQKPGQPPKQLIYSASSLASGVPSRFKGSGSGTQFTLTISDVQCDDAATYYCLGSYDCSDADCYAFGGGTEVVVK
notes: also called A047 (A56); anti-A56 rabbit antibody A047 hIgG1
Turning to B5, the binding result in [8] is listed as “binds”; in test [10], “no binding (tested: about 330 nM)”; in test [12], “binds”. In [9], this molecule had a koff of 4.5e-05 s⁻¹. This molecule also returned a kon in test [9] of 19200 M⁻¹ s⁻¹. This molecule yielded a Kd in test [11] of 2.34 nM.

B6: A050 (antibody, V domains shown)
VH: QSLEESGGDLVKPGASLTLTCTASGFSFSSSYWLCWARQAPGKGPEWIACIYNGDGSTHYASWAKGRFTISKSSSTTVTLQMTSLTAADTATYFCARDYTYNFYTYGFNLWGPGTLVTVSS
VL: FELTQTPSSVEAAVGGTVTINCQASQSVNIWASWYQQKPGQPPKLLIYKASTLASGVPSRFKGSGSGTEFTLTISDLECADAATYYCQGGYPSSSSGWAFGGGTEVVVK
notes: also called A050 (A56); anti-A56 rabbit antibody A050 hIgG1
Take B6: the values for the binding result in [8], in test [10] and in [12] were “binds”, “no binding (tested: about 330 nM)” and “binds”, respectively. This molecule also came in with a koff in [9] of 5.07e-05 s⁻¹. The same molecule showed a kon in test [9] of 99800 M⁻¹ s⁻¹. Besides, in test [11], the Kd came out at 0.507 nM.

B7: A059 (antibody, V domains shown)
VH: QSLEESGGDLVKPGASLTLTCTASGIDFSDIYYISWVRQAPGKGLEWIACTYAGSSGSTYYATWAKGRFTISKASSTTVTLQMTSLTAADTATYFCARDRYPGTSGRVYGMDLWGPGTLVTVSS
VL: VVMTQTPSSVSEPVGGTVTIKCQASQSISDLLSWYQQKPGQPPKLLIYSASTLASGVSSRFKGSGSGTEFTLTISDLECADAATYYCQCNYYSPTYGNGFGGGTEVVVK
notes: also called A059 anti-A56, Rb/Mu IgG2a; A049/A059/A056
As to B7, the midpoint of the response in test [13], the EC50, lay at 5 nM. Also, the binding result in [14] is recorded as “no binding (tested: 10 ug/mL)”.

B8: A056 (antibody, V domains shown)
VH: QSLEESGGDLVKPGASLTLTCTASGIDFSDIYYISWVRQAPGKGLEWIACTYAGSSGSTYYATWAKGRFTISKASSTTVTLQMTSLTAADTATYFCARDRYPGTSGRVYGMDLWGPGTLVTVSS
VL: VVMTQTPSSVSEPVGGTVTIKCQASQSISDLLSWYQQKPGQPPKLLIYSASTLASGVSSRFKGSGSGTEFTLTISDLECADAATYYCQCNYYSPTYGNGFGGGTEVVVK
notes: also called A056 anti-A56, Rb IgG; anti-A56-PE (A056, Rb IgG)
In test [13], B8 gave an EC50 of 16 nM. Further, the binding result in [14] is listed as “no binding (tested: 10 ug/mL)”.

B9: A049 (antibody, V domains shown)
VH: QSLEESGGDLVKPGASLTLTCTASGIDFSDIYYISWVRQAPGKGLEWIACTYAGSSGSTYYATWAKGRFTISKASSTTVTLQMTSLTAADTATYFCARDRYPGTSGRVYGMDLWGPGTLVTVSS
VL: VVMTQTPSSVSEPVGGTVTIKCQASQSISDLLSWYQQKPGQPPKLLIYSASTLASGVSSRFKGSGSGTEFTLTISDLECADAATYYCQCNYYSPTYGNGFGGGTEVVVK
notes: also called A049 (A56); A049 anti-A56 hIgG1
For B9, in test [9], the off-rate constant (koff) was determined as 2.27e-05 s⁻¹ and the kon amounted to 395000 M⁻¹ s⁻¹. The molecule further yielded a concentration giving a half-maximal response (EC50) in [13] of 14 nM. For the same molecule, the Kd in test [11] is at most 0.1 nM.

B10: A051 (antibody, V domains shown)
VH: QEQVEESGGGLAKPGASLTLTCEASGFTLSSYWMCWVRQAPGKGLEWIACIYGGSSGSTYYSNWAKGRFTISKTSSTTVTLQMTSLTAADTATYFCARDGSTWDYFRLWGPGTLVTVSS
VL: YDMTQTPSSVEAAVGGTVTIKCQASQSINTNYLSWYQQKPGQPPKLLIYQASTLESGVPSRFKGSGSGTEYTLTISDLECADAATYYCQGYYTVENIGNPFGGGTEVVVK
notes: also called anti-B5 rabbit antibody A051 hIgG1
Take B10: the binding result in [15] and in test [16] was “binds” each time.

For the origin of these results see patent US20230027475A1 (ADMARE THERAPEUTICS SOCIETY, published 2023).
